Source: publication PMC3539207
Like-named read-outs stand apart in the source and are kept apart here.

Assays:
Experiment in all cases: fluorescence polarization
GR DBD WT [1] = target: T1, GR DBD WT (Homo sapiens, UniProt P04150 417-506)
GR DBD R460D/D462R = GR DBD R460D/D462R (Homo sapiens, UniProt P04150 417-506, R460D;D462R)
GR DBD WT [2] = target: T1, GR DBD WT; remark: listed apart in the source
GR DBD WT [3] = target: T1, GR DBD WT; remark: listed apart in the source

T1 sequence (P04150 417-506): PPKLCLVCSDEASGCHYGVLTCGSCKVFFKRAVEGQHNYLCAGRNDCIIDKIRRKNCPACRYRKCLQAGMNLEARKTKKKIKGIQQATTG
Sequence of GR DBD R460D/D462R (P04150 417-506 R460D/D462R): as the sequence (P04150 417-506) above, with R44D, D46R counted along it

B1: FGFR3 nGRE (dsDNA)
DNA 1: CTGCCTCCCCGGAGATGG
DNA 2: CCATCTCCGGGGAGGCAG
Binder B1 has a Kd (GR DBD WT [1]) of 280 ± 80 nM.

B2: INS nGRE (dsDNA)
DNA 1: TGCTCTCCTGGAGACATT
DNA 2: AATGTCTCCAGGAGAGCA
In the case of B2, the Kd (GR DBD WT [1]) is reported as 500 ± 70 nM.

B3: (+)GRE (dsDNA)
DNA 1: CCAGAACAGAGTGTTCTGA
DNA 2: TCAGAACACTCTGTTCTGG
In the case of B3, the Kd (GR DBD R460D/D462R) is reported as 80 ± 7 nM and the Kd (GR DBD WT [2]) is reported as 70 ± 7 nM.

B4: TSLP, low site only (dsDNA)
DNA 1: CCGCCTCCGG
DNA 2: CCGGAGGCGG
With B4 the Kd (GR DBD WT [3]) was 12700 ± 800 nM.
